Source: patent EP4722231A1 (Shanxi Jinbo Bio-Pharmaceutical Co., Ltd., dated 2025)

How the values were obtained:
Experiment in all cases: cell-based or functional assay
[1] = target: SARS-CoV-2 Omicron BA.2 S protein (SARS-CoV-2 (BA.2 variant))
[2] = target: SARS-CoV-2 BA.2.75 S protein (SARS-CoV-2 (BA.2.75 variant))
[3] = target: SARS-CoV-2 BA.2.86 S protein (SARS-CoV-2 (BA.2.86 variant))
[4] = target: SARS-CoV-2 XBB.1.5 S protein (SARS-CoV-2 (XBB.1.5 variant))
[5] = target: SARS-CoV-2 EG.5 S protein (SARS-CoV-2 (EG.5 variant))

| Binder | Inhibitory activity, IC50 (nM), pseudovirus infection of Caco2 cells (luciferase) [1] [nM] | Inhibitory activity, IC50 (nM), pseudovirus infection of Caco2 cells (luciferase) [2] [nM] | Inhibitory activity, IC50 (nM), pseudovirus infection of Caco2 cells (luciferase) [3] [nM] | Inhibitory activity, IC50 (nM), pseudovirus infection of Caco2 cells (luciferase) [4] [nM] | Inhibitory activity, IC50 (nM), pseudovirus infection of Caco2 cells (luciferase) [5] [nM] |
| --- | --- | --- | --- | --- | --- |
| Ac-SLDQINVTFLDLEYEMKKLEEAIKKLEESYIDLKEL-NH2 [chemically synthesized polypeptide EK1] | 228 | 438 | 392 | 291 | 401 |
| SLDQINVTFLDLEYEMKKLEEAIKKLEESYIDLKEL [prokaryote-expressed polypeptide reEK1 (recombinant polypeptide HCoV-EK1, TEKB)] | 354 | 420 | 298 | 137 | 331 |
